Measurements as given in IntAct's records for PubMed 18354483.

B1: RE1-silencing transcription factor (Homo sapiens), Q13127 (parent)
chain: MATQVMGQSSGGGGLFTSSGNIGMALPNDMYDLHDLSKAELAAPQLIMLANVALTGEVNGSCCDYLVGEERQMAELMPVGDNNFSDSEEGEGLEESADIKGEPHGLENMELRSLELSVVEPQPVFEASGAPDIYSSNKDLPPETPGAEDKGKSSKTKPFRCKPCQYEAESEEQFVHHIRVHSAKKFFVEESAEKQAKARESGSSTAEEGDFSKGPIRCDRCGYNTNRYDHYTAHLKHHTRAGDNERVYKCIICTYTTVSEYHWRKHLRNHFPRKVYTCGKCNYFSDRKNNYVQHVRTHTGERPYKCELCPYSSSQKTHLTRHMRTHSGEKPFKCDQCSYVASNQHEVTRHARQVHNGPKPLNCPHCDYKTADRSNFKKHVELHVNPRQFNCPVCDYAASKKCNLQYHFKSKHPTCPNKTMDVSKVKLKKTKKREADLPDNITNEKTEIEQTKIKGDVAGKKNEKSVKAEKRDVSKEKKPSNNVSVIQVTTRTRKSVTEVKEMDVHTGSNSEKFSKTKKSKRKLEVDSHSLHGPVNDEESSTKKKKKVESKSKNNSQEVPKGDSKVEENKKQNTCMKKSTKKKTLKNKSSKKSSKPPQKEPVEKGSAQMDPPQMGPAPTEAVQKGPVQVEPPPPMEHAQMEGAQIRPAPDEPVQMEVVQEGPAQKELLPPVEPAQMVGAQIVLAHMELPPPMETAQTEVAQMGPAPMEPAQMEVAQVESAPMQVVQKEPVQMELSPPMEVVQKEPVQIELSPPMEVVQKEPVKIELSPPIEVVQKEPVQMELSPPMGVVQKEPAQREPPPPREPPLHMEPISKKPPLRKDKKEKSNMQSERARKEQVLIEVGLVPVKDSWLLKESVSTEDLSPPSPPLPKENLREEASGDQKLLNTGEGNKEAPLQKVGAEEADESLPGLAANINESTHISSSGQNLNTPEGETLNGKHQTDSIVCEMKMDTDQNTRENLTGINSTVEEPVSPMLPPSAVEEREAVSKTALASPPATMAANESQEIDEDEGIHSHEGSDLSDNMSEGSDDSGLHGARPVPQESSRKNAKEALAVKAAKGDFVCIFCDRSFRKGKDYSKHLNRHLVNVYYLEEAAQGQE

Variants of: B1
Settings: with fbw1a_human BTRC

| effect of a mutation on the interaction | Variant |
| --- | --- |
| disrupting interaction strength | S1024A |
| disrupting interaction strength | S1027A |
| disrupting interaction strength | S1030A |
